From patent US20020197661

Columns and labels:
[1] = system: Acetyl-Prolyl-Arginyl-Asparaginyl-Lysyl-aminoacetamide coumarin (Ac-PRNK-ACC)
Ac-PANK-ACC [2] = system: Ac-PANK-ACC
Ac-PRNR-ACC [3] = system: Ac-PRNR-ACC
Ac-PRTK-ACC [4] = system: Ac-PRTK-ACC
Ac-PANK-ACC [5] = test: single substrate kinetics, fluorogenic ACC release, Skin (β-I) Tryptase
Ac-PRNR-ACC [6] = test: as above
Ac-PRTK-ACC [7] = test: as above
[8] = system: Acetyl-Prolyl-Arginyl-Asparaginyl-Lysyl-aminoacetamide coumarin (Ac-PRNK-ACC); test: as above
Ac-PANK-ACC [9] = test: single substrate kinetics, fluorogenic ACC release, Lung (β-II) Tryptase
Ac-PRNR-ACC [10] = test: as above
Ac-PRTK-ACC [11] = test: as above
[12] = system: Acetyl-Prolyl-Arginyl-Asparaginyl-Lysyl-aminoacetamide coumarin (Ac-PRNK-ACC); test: as above

Chain of recombinant human βI-tryptase (chain, as listed by the source): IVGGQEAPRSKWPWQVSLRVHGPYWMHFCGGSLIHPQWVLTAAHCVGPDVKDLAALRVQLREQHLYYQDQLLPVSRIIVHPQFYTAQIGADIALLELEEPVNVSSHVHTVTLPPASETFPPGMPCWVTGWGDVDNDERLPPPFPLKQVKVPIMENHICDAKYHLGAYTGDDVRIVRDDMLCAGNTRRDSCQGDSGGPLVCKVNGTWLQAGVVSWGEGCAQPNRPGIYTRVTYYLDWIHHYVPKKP

Row | Substance | cleavage of the fluorogenic substrate (fluorescence, excitation 355 nm, emission 460 nm) [1] | kcat (Ac-PANK-ACC [2]) [s⁻¹] | kcat/km (s^-1M^-1) (Ac-PANK-ACC [2]) | kcat (Ac-PRNR-ACC [3]) [s⁻¹] | kcat/km (s^-1M^-1) (Ac-PRNR-ACC [3]) | kcat (Ac-PRTK-ACC [4]) [s⁻¹] | kcat/km (s^-1M^-1) (Ac-PRTK-ACC [4]) | kcat [1] [s⁻¹] | kcat/km (s^-1M^-1) [1] [s^-1M^-1] | preference over Ac-PRTK-ACC (kcat/Km) [1] | Km (Ac-PANK-ACC [5]) [µM] | Km (Ac-PRNR-ACC [6]) [µM] | Km (Ac-PRTK-ACC [7]) [µM] | Km [8] [µM] | activity relative to Ac-PRNK-ACC (kcat/Km) (Ac-PRNR-ACC [3]) | preference over Ac-PANK-ACC (kcat/Km) [1] | Km (Ac-PANK-ACC [9]) [µM] | Km (Ac-PRNR-ACC [10]) [µM] | Km (Ac-PRTK-ACC [11]) [µM] | Km [12] [µM]
1 | Human alpha-thrombin (Haematologic Technologies, Inc.) | Ac-PRNK-ACC (SEQ. ID. NO: 12) is a specific substrate for tryptase in relation to other blood borne serine proteases |  |  |  |  |  |  |  |  |  |  |  |  |  |  |  |  |  |  | 
2 | recombinant human βI-tryptase | Ac-PRNK-ACC (SEQ. ID. NO: 12) is a specific substrate for tryptase in relation to other blood borne serine proteases | 19.1 | 140000 | 20.9 | 1.12e+06 | 18.3 | 780000 | 17.8 | 1.23e+06 | A minimal preference, approximately 2-fold, for P2-asparagine over P2-threonine was seen for both enzymes | 133 | 18.6 | 23.4 | 14.5 |  |  |  |  |  | 
3 | recombinant human βII-tryptase |  | 20.3 | 180000 | 21.8 | 1.31e+06 | 18.7 | 1.27e+06 | 16.8 | 1.89e+06 | A minimal preference, approximately 2-fold, for P2-asparagine over P2-threonine was seen for both enzymes |  |  |  |  | about 70-90% of the activity of Ac-PRNK-ACC | an approximately 10-fold preference for Ac-PRNK-ACC (SEQ. ID. NO: 12) over Ac-PANK-ACC | 110 | 16.5 | 14.7 | 8.9
